Target: Avs8A (ECOR07), fused to 6xHis-SUMO (E. coli ECOR07) (UniProt B7LDL1)
Assay: MST

Basel 21 major capsid protein (natural protein)
Kd: 14 nM
